Read-outs that look alike come from different tables or passages of the source.
Legend:
[1] = target: T1, recombinant human Ang2-FLD (human, UniProt O15123 275-496, limits assumed); assay: ProteOn off-rate assay, periplasmic extracts over coated human Ang2-FLD
T1 construct: domain: FLD; not used
T1 sequence (looked up): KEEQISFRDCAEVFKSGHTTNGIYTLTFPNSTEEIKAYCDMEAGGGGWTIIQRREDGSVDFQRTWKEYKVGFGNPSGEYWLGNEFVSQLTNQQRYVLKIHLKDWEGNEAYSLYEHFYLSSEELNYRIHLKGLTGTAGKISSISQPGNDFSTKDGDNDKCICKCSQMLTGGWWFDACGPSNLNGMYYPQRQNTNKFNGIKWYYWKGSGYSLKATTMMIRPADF
Procedure: In a first cycle, amino acid substitutions are introduced randomly in both framework (FW) and complementary determining regions (CDR) using the error-prone PCR method. […] After a polish step, PCR products are inserted via unique restriction sites into a vector designed to facilitate phage display of the VHH library. […] Periplasmic extract of affinity matured clones is diluted 1:10 and injected across the “analyte channels” A1-A6.

[2] = target: T2, recombinant mouse Ang2-FLD (mouse, UniProt O35608 275-496, limits assumed); assay: SPR (Biacore T100), VHH immobilized, Ang2-FLD injected
T2 construct: domain: FLD
T2 sequence (looked up): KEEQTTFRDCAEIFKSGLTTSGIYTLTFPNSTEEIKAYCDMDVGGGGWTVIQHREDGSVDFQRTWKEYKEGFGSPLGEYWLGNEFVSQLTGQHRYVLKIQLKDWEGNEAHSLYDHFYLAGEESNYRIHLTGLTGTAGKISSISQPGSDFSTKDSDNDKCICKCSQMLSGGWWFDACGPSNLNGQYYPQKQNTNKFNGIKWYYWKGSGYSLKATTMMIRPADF

recombinant rat Ang2-FLD = target: T3, recombinant rat Ang2-FLD (rat, UniProt O35462 275-496, limits assumed); assay: as above
T3 construct: domain: FLD
T3 sequence (looked up): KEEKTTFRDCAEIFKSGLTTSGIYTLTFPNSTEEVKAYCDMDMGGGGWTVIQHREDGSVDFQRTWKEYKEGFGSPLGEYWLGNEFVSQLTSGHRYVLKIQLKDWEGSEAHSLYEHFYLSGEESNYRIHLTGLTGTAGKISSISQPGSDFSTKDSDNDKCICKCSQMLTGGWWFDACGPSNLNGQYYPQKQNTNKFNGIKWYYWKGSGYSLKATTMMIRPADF

[3] = target: T4, recombinant human Ang2-FLD (human, UniProt O15123 275-496, limits assumed); assay: as above
T4 construct: domain: FLD
T4 sequence (looked up): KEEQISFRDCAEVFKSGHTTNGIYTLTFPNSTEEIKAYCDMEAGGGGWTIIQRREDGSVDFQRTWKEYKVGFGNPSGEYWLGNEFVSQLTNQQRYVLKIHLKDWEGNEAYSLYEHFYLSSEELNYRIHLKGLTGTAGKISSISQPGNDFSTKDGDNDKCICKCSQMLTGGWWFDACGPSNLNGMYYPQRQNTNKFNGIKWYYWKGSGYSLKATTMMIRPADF

[4] = target: T5, recombinant cynomolgus Ang2-FLD (cynomolgus, UniProt A0A2K5VNX6 275-496); assay: as above
T5 construct: domain: FLD; also called cyno Ang2-FLD
T5 sequence: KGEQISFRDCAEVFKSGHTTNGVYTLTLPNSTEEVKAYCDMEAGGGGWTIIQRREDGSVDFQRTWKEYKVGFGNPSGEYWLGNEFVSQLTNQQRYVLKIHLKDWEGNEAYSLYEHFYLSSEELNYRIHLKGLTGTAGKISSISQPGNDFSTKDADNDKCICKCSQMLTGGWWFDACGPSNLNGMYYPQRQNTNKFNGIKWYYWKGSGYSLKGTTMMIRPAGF

FLAG-tagged mouse Ang2 = target: T6, FLAG-tagged mouse Ang2 (mouse, UniProt O35608 19-496); assay: competition ELISA: FLAG-mAng2 binding to coated mTie2-Fc
T6 construct: N-terminally FLAG-tagged, conditioned medium of HEK293T cells; also called mAng2; FLAG-mAng2
T6 sequence: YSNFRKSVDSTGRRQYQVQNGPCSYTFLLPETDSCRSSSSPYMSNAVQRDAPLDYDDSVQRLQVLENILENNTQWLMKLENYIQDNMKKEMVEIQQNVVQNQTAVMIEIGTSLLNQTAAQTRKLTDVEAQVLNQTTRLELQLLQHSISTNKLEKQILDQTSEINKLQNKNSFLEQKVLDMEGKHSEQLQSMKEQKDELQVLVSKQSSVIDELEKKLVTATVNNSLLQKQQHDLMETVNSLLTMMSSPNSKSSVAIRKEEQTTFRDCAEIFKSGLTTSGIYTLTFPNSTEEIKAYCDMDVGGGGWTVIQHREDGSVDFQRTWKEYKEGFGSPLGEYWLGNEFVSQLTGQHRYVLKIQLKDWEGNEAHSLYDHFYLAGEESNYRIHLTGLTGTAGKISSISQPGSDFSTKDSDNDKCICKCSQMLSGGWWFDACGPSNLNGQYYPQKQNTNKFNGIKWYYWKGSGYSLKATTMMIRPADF
Procedure: (§1) In brief, 2 μg/mL of recombinant mouse Tie2-Fc or cyno Tie2-Fc is coated overnight at 4° C. in a 96-well MaxiSorp plate (Nunc, Wiesbaden, Germany). Coated wells are blocked with a 1% casein solution.

[5] = target: T7, FLAG-tagged cynomolgus Ang2 (cynomolgus, UniProt O15123 19-496 (human entry), limits assumed); assay: competition ELISA: FLAG-cAng2 binding to coated cTie2-Fc
T7 construct: N-terminally FLAG-tagged, conditioned medium of HEK293T cells; also called cAng2; FLAG-cAng2
T7 chain: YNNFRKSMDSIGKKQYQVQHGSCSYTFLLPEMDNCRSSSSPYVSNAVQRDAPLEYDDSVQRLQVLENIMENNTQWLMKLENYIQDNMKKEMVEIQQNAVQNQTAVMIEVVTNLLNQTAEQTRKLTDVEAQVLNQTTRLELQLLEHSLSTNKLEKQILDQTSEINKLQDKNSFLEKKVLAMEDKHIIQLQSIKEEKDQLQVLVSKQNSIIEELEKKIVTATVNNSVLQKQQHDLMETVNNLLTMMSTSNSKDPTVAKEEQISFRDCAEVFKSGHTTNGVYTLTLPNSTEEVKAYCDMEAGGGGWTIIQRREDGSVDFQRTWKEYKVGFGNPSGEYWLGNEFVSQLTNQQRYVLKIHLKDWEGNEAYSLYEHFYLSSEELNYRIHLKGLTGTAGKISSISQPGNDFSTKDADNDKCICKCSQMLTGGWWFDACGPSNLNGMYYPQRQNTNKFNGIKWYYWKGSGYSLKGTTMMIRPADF
Procedure: as §1

[6] = target: T8, N-terminally FLAG-tagged mouse Ang2 (HEK293T conditioned medium) (mouse, UniProt O35608 19-496); assay: competition ELISA, FLAG-mAng2 on coated mTie2-Fc
T8 construct: may be a nucleotide entry; also called mAng2; FLAG-mAng2
T8 sequence: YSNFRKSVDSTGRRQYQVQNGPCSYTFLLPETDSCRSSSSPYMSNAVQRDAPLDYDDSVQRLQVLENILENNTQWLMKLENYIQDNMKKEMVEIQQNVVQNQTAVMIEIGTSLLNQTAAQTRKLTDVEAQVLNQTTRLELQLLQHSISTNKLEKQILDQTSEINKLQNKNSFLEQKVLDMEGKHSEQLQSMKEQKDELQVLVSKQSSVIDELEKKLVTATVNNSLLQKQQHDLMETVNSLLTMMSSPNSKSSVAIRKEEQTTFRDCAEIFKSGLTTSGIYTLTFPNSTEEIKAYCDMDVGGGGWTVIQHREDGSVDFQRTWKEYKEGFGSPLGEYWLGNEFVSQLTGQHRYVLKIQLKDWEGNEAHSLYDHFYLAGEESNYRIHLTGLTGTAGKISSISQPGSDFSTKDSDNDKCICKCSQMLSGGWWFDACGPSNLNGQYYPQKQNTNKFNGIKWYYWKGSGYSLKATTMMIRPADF
Procedure: as §1

[7] = target: T9, N-terminally FLAG-tagged cynomolgus Ang2 (HEK293T conditioned medium) (cynomolgus, UniProt O15123 19-496 (human entry), limits assumed); assay: competition ELISA, FLAG-cAng2 on coated cTie2-Fc
T9 construct: may be a nucleotide entry; also called cAng2; FLAG-cAng2
T9 chain: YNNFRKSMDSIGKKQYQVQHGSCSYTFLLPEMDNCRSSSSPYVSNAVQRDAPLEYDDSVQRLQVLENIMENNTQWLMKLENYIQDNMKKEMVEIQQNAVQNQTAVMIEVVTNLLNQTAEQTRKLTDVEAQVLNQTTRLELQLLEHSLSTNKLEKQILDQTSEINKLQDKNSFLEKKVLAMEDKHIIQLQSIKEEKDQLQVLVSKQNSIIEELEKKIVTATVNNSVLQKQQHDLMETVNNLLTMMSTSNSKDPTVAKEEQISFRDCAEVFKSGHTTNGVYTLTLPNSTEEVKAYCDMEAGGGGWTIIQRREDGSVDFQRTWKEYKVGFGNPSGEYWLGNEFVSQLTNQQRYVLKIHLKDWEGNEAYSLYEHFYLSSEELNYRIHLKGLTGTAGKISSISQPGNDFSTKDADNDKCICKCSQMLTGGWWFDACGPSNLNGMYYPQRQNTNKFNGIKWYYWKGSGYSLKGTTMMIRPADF
Procedure: as §1

[8] = target: T8, N-terminally FLAG-tagged mouse Ang2 …; assay: competition ELISA, FLAG-mAng2 on coated mTie2-Fc; remark: listed apart in the source
Procedure: as §1

[9] = target: T10, FLAG-tagged recombinant human Ang1 (Alexis Biochemicals) (human, UniProt Q15389 20-498, limits assumed); assay: competition ELISA, FLAG-hAng1 (0.02 nM) on coated hTie2-Fc
T10 construct: Bought reagent; also called hAng1; FLAG-hAng1
T10 sequence (looked up): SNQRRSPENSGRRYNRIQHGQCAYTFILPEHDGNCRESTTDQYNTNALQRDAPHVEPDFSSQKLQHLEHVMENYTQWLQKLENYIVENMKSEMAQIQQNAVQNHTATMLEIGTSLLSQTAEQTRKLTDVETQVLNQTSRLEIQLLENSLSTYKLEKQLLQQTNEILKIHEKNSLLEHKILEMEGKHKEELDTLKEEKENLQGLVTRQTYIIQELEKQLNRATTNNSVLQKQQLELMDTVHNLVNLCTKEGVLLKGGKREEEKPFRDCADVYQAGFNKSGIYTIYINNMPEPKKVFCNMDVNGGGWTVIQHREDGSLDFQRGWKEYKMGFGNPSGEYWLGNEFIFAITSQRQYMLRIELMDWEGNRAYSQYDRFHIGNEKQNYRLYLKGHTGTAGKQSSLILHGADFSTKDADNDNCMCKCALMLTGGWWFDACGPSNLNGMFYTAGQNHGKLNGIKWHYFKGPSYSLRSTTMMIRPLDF
Procedure: (§2) In brief, 2 μg/mL of recombinant human Tie2-Fc (R&D Systems, Minneapolis, Minn., USA) is coated overnight at 4° C. in a 96-well MaxiSorp plate (Nunc, Wiesbaden, Germany). Coated wells are blocked with a 1% casein solution.

[10] = target: T11, recombinant cynomolgus Ang2-FLD (cynomolgus); assay: SPR (Biacore T100), binder on CM5 chip, Ang2-FLD as analyte
T11 construct: domain: FLD; also called cyno Ang2-FLD
In short: (§3)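 Binders were immobilized by amine coupling onto a CM5 sensor chip, and Ang2-FLD from each species was passed over as analyte at 45 μL/min, with 2 min association and 20 min dissociation. Surfaces were regenerated between injections using a 10 sec 25 mM NaOH pulse and 60 sec stabilization. Rate constants came from a 1:1 Langmuir fit, and KD was derived from them.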

[11] = target: T1, recombinant human Ang2-FLD; assay: as above
In short: as §3

[12] = target: T12, recombinant mouse Ang2-FLD (mouse, UniProt O35608 275-496, limits assumed); assay: as above
T12 construct: domain: FLD
T12 sequence (looked up): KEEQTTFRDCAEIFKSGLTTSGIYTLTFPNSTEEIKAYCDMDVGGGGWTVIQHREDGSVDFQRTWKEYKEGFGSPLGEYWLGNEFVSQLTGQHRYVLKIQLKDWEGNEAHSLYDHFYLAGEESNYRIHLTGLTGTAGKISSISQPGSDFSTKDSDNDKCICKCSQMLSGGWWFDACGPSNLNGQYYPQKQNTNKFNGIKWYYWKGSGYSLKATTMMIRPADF
In short: as §3

[13] = target: T10, FLAG-tagged recombinant human Ang1 …; assay: ratio of IC50 in hAng1/hTie2 ELISA to IC50 in hAng2/hTie2 ELISA
Procedure: In brief, 2 μg/mL of Tie2/Fc chimera (R&D Systems, Minneapolis, Minn., USA) is coated in a 96-well MaxiSorp plate (Nunc, Wiesbaden, Germany).
as §2

B1: variant(s) of VHH 00027 carrying F27L and L100iI (VHH)
VHH: EVQLVESGGGLVQAGGSLRLSCAASGLTLDDYAIGWFRQAPGKEREGVSSIRDNDGSTYYADSVKGRFTISSDNDKNTVYLQMNSLKPEDTAVYYCAAVPAGRLRFGEQWYPIYEYDAWGQGTLVTVSS
notes: also called L100il
[1]
  fold improvement (off-rate against VHH 00027): 9.4 fold

B2: VHH 00919 (VHH, not shown: small tags and cut ends)
VHH: EVQLVESGGGLVQPGGSLRLSCAASGFTLDDYAIGWFRQAPGKEREGVSAIRDNGGSTYYADSVKGRFTISSDNSKNTVYLQMNSLRPEDTAVYYCAAVPAGRLRFGEQWYPLYEYDAWGQGTLVTVSS
[2]
  Kd: 3 nM
  koff: 0.0039 s⁻¹
  kon: 1.3e+06 M⁻¹ s⁻¹
Recombinant rat Ang2-FLD
  Kd: 10 nM
  koff: 0.005 s⁻¹
  kon: 500000 M⁻¹ s⁻¹
[3]
  Kd: 1.6 nM
  koff: 0.0015 s⁻¹
  kon: 950000 M⁻¹ s⁻¹
[4]
  Kd: 0.54 nM
  koff: 0.0012 s⁻¹
  kon: 2.3e+06 M⁻¹ s⁻¹
FLAG-tagged mouse Ang2
  IC50: 1.8 nM
[5]
  IC50: 0.7 nM

B3: VHH 10H02 (VHH)
VHH: EVQLVESGGGSVQAGGSLRLSCAASGFTFDDYAIGWFRQAPGKEREGVSCISSSDGSTNYADSVKGRFTISSDTAKNTVYLQMNSLKPEDTAVYYCTAVPATRRTPQMVDANMCWLAEYEYDYWGQGTQVTVSS
notes: also called 010H02; not shown: C-terminal c-myc tag and His6 tag
[6]
  IC50: 5.2 nM
[7]
  IC50: 23.7 nM
[8]
  IC50: 21.4 nM
[9]
  IC50: 2000 nM
[10]
  Kd: 3.4 nM
  koff: 0.023 s⁻¹
  kon: 6.9e+06 M⁻¹ s⁻¹
[11]
  Kd: 3.6 nM
  koff: 0.021 s⁻¹
  kon: 5.7e+06 M⁻¹ s⁻¹
[12]
  Kd: 11 nM
  koff: 0.026 s⁻¹
  kon: 2.5e+06 M⁻¹ s⁻¹
[13]
  hAng1/hAng2 ratio: 230

Reference: patent US20230203146A1 (Boehringer Ingelheim, published 2023)
